Experimental data reported in patent US20260234211A1 (GUANGDONG RAYNOVENT BIOTECH, published 2026).
Bridge positions count the residues as written; N and C are the ends. Square brackets hold non-standard residues; d marks the D form. Ends that are not written are not given here. Aib = CC(C)(N)C(=O)O

T1: GIP receptor (GIPR)
T1 sequence (P48546 whole entry, species assumed, looked up): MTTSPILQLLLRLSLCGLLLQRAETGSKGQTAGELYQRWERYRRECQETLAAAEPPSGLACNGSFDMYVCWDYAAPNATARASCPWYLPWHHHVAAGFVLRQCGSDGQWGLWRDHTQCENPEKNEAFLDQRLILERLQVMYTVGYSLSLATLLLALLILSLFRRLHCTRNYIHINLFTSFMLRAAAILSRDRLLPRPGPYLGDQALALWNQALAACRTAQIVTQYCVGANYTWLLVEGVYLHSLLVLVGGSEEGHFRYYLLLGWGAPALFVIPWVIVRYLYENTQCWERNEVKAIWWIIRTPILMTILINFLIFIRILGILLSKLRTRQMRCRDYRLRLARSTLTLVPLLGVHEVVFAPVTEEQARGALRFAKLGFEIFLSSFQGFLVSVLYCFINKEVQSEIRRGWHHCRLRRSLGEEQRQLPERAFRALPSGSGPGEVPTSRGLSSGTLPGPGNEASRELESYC

B1: Example 5 (peptide)
peptide: H[Aib]HGTFTSDYSIYLEKKYA[Aib]KFVQWLLEGGPSSGAPPPS-NH2
modifications: bridge 17-21; not fully specified (residues 17, 21, bridges); also: staple structure only in drawing
B2: Example 4 (peptide)
peptide: H[Aib]HGTFTSDYSIYLEKKYA[Aib]EFVKWLLKGGPSSGAPPPS-NH2
modifications: bridge 24-28; not fully specified (residues 24, 28, bridges); also: staple structure only in drawing

Columns and labels:
Assay in all cases: cell-based or functional assay
GLP-1 receptor (GLP-1R) = biological target: GLP-1 receptor (GLP-1R)
GIP receptor (GIPR) = biological target: T1, GIP receptor (GIPR)
GCG receptor (GCGR) = biological target: GCG receptor (GCGR)

| Binder | GLP-1 EC50 (nM), cAMP assay on HEK293 cells with GLP-1R (GLP-1 receptor (GLP-1R)) [nM] | GIP-1 EC50 (nM), cAMP assay on CHO cells with GIPR (GIP receptor (GIPR)) [nM] | GCG EC50 (nM), cAMP assay on HEK293 cells with GCGR (GCG receptor (GCGR)) [nM] |
| --- | --- | --- | --- |
| B1 | 0.029 | 0.007 | 0.012 |
| B2 | 0.023 | 0.016 | 0.143 |
